Source: patent US20100034834A1

Experiments:
[1] = target: NY-ESO-1 peptide … presented on peptide-pulsed T2 cells (UniProt P61769); experiment: cell-based or functional assay
[2] = target: g9-154 (gp100) peptide … presented on peptide-pulsed T2 cells (UniProt P61769); experiment: cell-based or functional assay

Substance	IFN-γ secreted by transfected CD4+ T cells (Patient) with peptide-pulsed T2 cells [1] [pg/mL]	IFN-γ secreted by transfected CD8+ T cells (Patient) with peptide-pulsed T2 cells [1] [pg/mL]	IFN-γ secreted by transfected CD4+ T cells (Patient) with peptide-pulsed T2 cells [2] [pg/mL]	IFN-γ secreted by transfected CD8+ T cells (Patient) with peptide-pulsed T2 cells [2] [pg/mL]
1G4 mut1 (G70A): WT 1G4 alpha chain + beta chain G70A (TCR)	6380	10200	< 30	< 30
1G4 mut2 (A71I): WT 1G4 alpha chain + beta chain A71I (TCR)	8970	10100	< 30	< 30
1G4 mut3 (G70A/A71I): WT 1G4 alpha chain + beta chain G70A/A71I (TCR)	10700	8860	< 30	< 30
